According to patent US20130210034A1, “COMPLEX PHOSPHOPROTEIN ACTIVATION PROFILES” (BECKMAN COULTER, INC., priority 2005, published 2013):
Several values for one entry are separate records, joined by “and”; a condition that tells them apart may be missing. Equal entries are not always repeated.

Key:
Type in all cases: cell-based, human
pSTAT3 [1] = assay: Cytokine-stimulated phosphorylation in immunophenotypically defined cell populations from healthy donor BM (flow cytometry); conditions: for pSTAT3 Percent (%) Responding Cells, Mean / pSTAT3 S/N ratio: healthy donor BM, mean ± SD
Experimental: (§1) Bone marrow (BM) samples were collected in 7.5 mL Iscove's modified Dulbecco's medium (IMDM) supplemented with 100U penicillin, 0.01 mg/mL streptomycin, and 70 μg/mL heparin sodium salt from 10 patients undergoing hip replacement surgery, who were otherwise healthy. These patients were from a pool of surgery patients, age 49 to 77, and represented […] patients. […] These BM samples were rinsed twice with IMDM to release cells, filtered using a 100 μm Nylon cell strainer to remove marrow particles, and centrifuged for at RT fro 7 minutes at 200 g. The cell pellet was washed twice with sterile IMDM to remove traces of fat and re-suspended in IMDM to a concentration of 3×10^7 cells/mL.
(§2) To assess the signal transduction response after growth factor simulation, a series comprising two sets of tubes including about 3×10^6 cells/100 μL were incubated at 37° C. for 30 minutes. After this pre-incubation period, tubes with then processes with either a stimulant or inhibitor. […] To examine the effects of protein phosphorylation inhibition, tubes were incubated with an inhibitor cocktail comprising 100 μM/100 μL UO126, 1 μM/100 μL LY294002, and 1 μM/100 μL rapamycin. One unstimulated tube receiving no stimulant or inhibitor was processed to assess basal levels of phospho-protein expression. After stimulation the cells were immediately fixed in 10% formaldehyde solution at 37° C. Pre-labeling with CD13, CD16 and CD64 antibodies was carried out 20 minutes prior to formaldehyde fixation. After fixation, one set of tubes was permeabilized without methanol for pAKT, pERK and pS6 staining and the other for 80% methanol permeabilized for pSTAT3 and pSTAT5 staining. After permeablization, the cells were washed in PBS with 2% BSA and blocked by re-suspended in 75 μL of PBS comprising 25% heat inactivated normal mouse serum, 25% normal rabbit serum. To stain cells with fluorescent conjugated monoclonal antibodies, samples were incubated on ice for 45 minutes in 100 μL of an antibody staining solution including either: 1) CD15-Pacific Orange, CD34-Phycoerythrin-Texas Red, CD117-Phycoerythrin-Cyanin 5.5, CD45-Allophycocyanin-Alexa Fluor 750 (or CD45-Pacific Orange, in which case CD15-Pacific Orange was omitted), pS6-Pacific Blue, pERK-Alexa Fluor 488 and pAKT-Alexa Fluor 647 or 2) CD15-Pacific Orange, CD34-Phycoerythrin-Texas Red, CD117-Phycoerythrin-Cyanin 5.5, CD45-Allophycocyanin-Alexa Fluor 750 or CD45-Pacific Blue, pSTAT3-Alexa Fluor 488 and pSTAT5-Phycoerythrin. The stained cells were washed twice with ice cold PBS containing 2% BSA and centrifuged at 800 g for 6 minutes at 4° C. The supernatant was discarded and cells re-suspended in 250 μL of chilled wash buffer for data acquisition. Stained cells were examined using either GALIOS flow cytometer (Beckman Coulter) or CYAN ADP (Beckman Coulter) equipped with 488 nm, 405 nm and 635 nm lasers to detect the degree of fluorescence. Data were analyzed using FCS Express (De Novo Software, CA) analysis software.
(§3) Specific phosphoprotein expression of pERK, pS6, pAKT, pSTAT5, and pSTAT3 was examined in seven discrete phenotypically defined populations based on 7-color immunophenotyping (FIG. 1). The percent of responding (phosphorprotein positive) cells for each of these populations was determined from individual single parameter histograms based on a fixed integration region set on the inhibitor treated control at about 3% positives.

pS6 = assay: as above; conditions: healthy donor BM, mean ± SD
Experimental: as §1, §2, §3

pAKT = assay: as above; conditions: healthy donor BM, mean ± SD
Experimental: as §1, §2, §3

pERK = assay: as above; conditions: healthy donor BM, mean ± SD
Experimental: as §1, §2, §3

pSTAT5 [2] = assay: as above; conditions: for pSTAT5 Percent (%) Responding Cells, Mean / pSTAT5 S/N ratio: healthy donor BM, mean ± SD
Experimental: as §1, §2, §3

pSTAT3 [3] = assay: Cytokine-stimulated phosphorylation in AML cell populations (BM or PB of AML patients); conditions: patient AML3 (Example 3)
Experimental: as §2, §3
(§4) Using normal BM signaling profiles of Example 1 as comparison, analysis of 14 AML samples was carried out to identify differences in signaling responses. White blood cells from BM or peripheral blood (PB) samples were obtained from 14 diagnosed AML patients undergoing routine clinical flow cytometry analysis using IRB approved protocols. The AML patients included newly diagnosed AML, AMLs arising in a background of MDS, therapy related AMLs and previously diagnosed AML post therapy. The median age of the patients at diagnosis was 51 years (range: 29-75 years) and represented 5 female and 9 male patients. The median white blood cell was 6.4 million/mL (range: 0.9-106 M/mL) and the BM morphologic blast count was an average of 46% (range: 0%-90%).
(§5) Experiments performed to assess the signal transduction response after growth factor simulation were performed as described for Example 1.

pSTAT5 [4] = assay: as above; conditions: patient AML3 (Example 3)
Experimental: as §2, §3, §4, §5

lymphocytes = assay: Phosphoprotein modulation in lymphocytes of normal BM (Example 1, internal negative control); conditions: lymphocytes of normal BM (Examples 1-2)
Experimental: To assess the signal transduction response after growth factor simulation, a series comprising two sets of tubes including about 3×10^6 cells/100 μL were incubated at 37° C. for 30 minutes. After this pre-incubation period, tubes with then processes with either a stimulant or inhibitor. […] To examine the effects of protein phosphorylation inhibition, tubes were incubated with an inhibitor cocktail comprising 100 μM/100 μL UO126, 1 μM/100 μL LY294002, and 1 μM/100 μL rapamycin. One unstimulated tube receiving no stimulant or inhibitor was processed to assess basal levels of phospho-protein expression. After stimulation the cells were immediately fixed in 10% formaldehyde solution at 37° C. […] Stained cells were examined using either GALIOS flow cytometer (Beckman Coulter) or CYAN ADP (Beckman Coulter) equipped with 488 nm, 405 nm and 635 nm lasers to detect the degree of fluorescence. Data were analyzed using FCS Express (De Novo Software, CA) analysis software.
The tables include the mean and the standard deviation of the percent responding cell population as well as the signal/noise (S/N) ratio for the 5 different phosphoproteins in response to the above-mentioned stimuli in each of these populations. […] Lymphocytes thus served as a de facto internal negative control and their median fluorescence intensity (MFI) was used for normalization of the phosphoprotein measurements.

B1: Granulocyte Colony-Stimulating Factor (protein, UniProt P09919 31-207, looked up)
Granulocyte …: TPLGPASSLPQSFLLKCLEQVRKIQGDGAALQEKLVSECATYKLCHPEELVLLGHSLGIPWAPLSSCPSQALQLAGCLSQLHSGLFLYQGLLQALEGISPELGPTLDTLQLDVADFATTIWQQMEELGMAPALQPTQGAMPAFASAFQRRAGGVLVASHLQSFLEVSYRVLRHLAQP
notes: colony-stimulating cytokine
pSTAT3 Percent (%) Responding Cells, Mean (pSTAT3 [1]; CD34^+ (CD34^+/CD117^+ cells)): 77.8 ± 19.1%
pSTAT3 S/N ratio (pSTAT3 [1]; CD34^+ (CD34^+/CD117^+ cells)): 9.8 ± 3.0
pSTAT3 Percent (%) Responding Cells, Mean (pSTAT3 [1]; CD117^+ (CD34^−/CD117^+ cells)): 46.2 ± 26.8%
pSTAT3 S/N ratio (pSTAT3 [1]; CD117^+ (CD34^−/CD117^+ cells)): 9.9 ± 4.6
pSTAT3 Percent (%) Responding Cells, Mean (pSTAT3 [1]; G1, immature myeloid cells): 91.2 ± 20.4%
pSTAT3 S/N ratio (pSTAT3 [1]; G1, immature myeloid cells): 13.3 ± 4.8
pSTAT3 Percent (%) Responding Cells, Mean (pSTAT3 [1]; G2, intermediate myeloid cells): 91.3 ± 19.3%
pSTAT3 S/N ratio (pSTAT3 [1]; G2, intermediate myeloid cells): 13.3 ± 5.1
pSTAT3 Percent (%) Responding Cells, Mean (pSTAT3 [1]; G3, mature myeloid cells): 89.2 ± 24.9%
pSTAT3 S/N ratio (pSTAT3 [1]; G3, mature myeloid cells): 14.0 ± 5.5
pSTAT3 Percent (%) Responding Cells, Mean (pSTAT3 [1]; Mono, monocytes): 27.8 ± 31.8%
pSTAT3 S/N ratio (pSTAT3 [1]; Mono, monocytes): 6.1 ± 2.7
pSTAT3, Normal Sample (pSTAT3 [1]; Table 7 comparison value, matches percent responding CD34^+ cells of Table 5): 77.8
pS6 Percent (%) Responding Cells, Mean (pS6; CD34^+ (CD34^+/CD117^+ cells)): 52% and 52.0 ± 34.2%
pS6 S/N ratio (pS6; CD34^+ (CD34^+/CD117^+ cells)): 30.7 ± 25.2
pS6 Percent (%) Responding Cells, Mean (pS6; CD117^+ (CD34^−/CD117^+ cells)): 41.5 ± 26.5%
pS6 S/N ratio (pS6; CD117^+ (CD34^−/CD117^+ cells)): 12.9 ± 10.1
pS6 Percent (%) Responding Cells, Mean (pS6; G1, immature myeloid cells): 2.7 ± 1.9%
pS6 S/N ratio (pS6; G1, immature myeloid cells): 4.0 ± 2.3
pS6 Percent (%) Responding Cells, Mean (pS6; G2, intermediate myeloid cells): 2.9 ± 2.3%
pS6 S/N ratio (pS6; G2, intermediate myeloid cells): 3.7 ± 2.1
pS6 Percent (%) Responding Cells, Mean (pS6; G3, mature myeloid cells): 4.2 ± 3.0%
pS6 S/N ratio (pS6; G3, mature myeloid cells): 4.0 ± 2.4
pS6 Percent (%) Responding Cells, Mean (pS6; Mono, monocytes): 42.2% and 42.2 ± 30.2%
pS6 S/N ratio (pS6; Mono, monocytes): 17.2 ± 16.8
pAKT Percent (%) Responding Cells, Mean (pAKT; CD34^+ (CD34^+/CD117^+ cells)): 22.5% and 22.5 ± 18.4%
pAKT S/N ratio (pAKT; CD34^+ (CD34^+/CD117^+ cells)): 6.4 ± 5.9
pAKT Percent (%) Responding Cells, Mean (pAKT; CD117^+ (CD34^−/CD117^+ cells)): 16.6 ± 19.8%
pAKT S/N ratio (pAKT; CD117^+ (CD34^−/CD117^+ cells)): 2.7 ± 1.8
pAKT Percent (%) Responding Cells, Mean (pAKT; G1, immature myeloid cells): 5.3 ± 10.9%
pAKT S/N ratio (pAKT; G1, immature myeloid cells): 2.5 ± 1.5
pAKT Percent (%) Responding Cells, Mean (pAKT; G2, intermediate myeloid cells): 4.1 ± 3.3%
pAKT S/N ratio (pAKT; G2, intermediate myeloid cells): 2.5 ± 1.2
pAKT Percent (%) Responding Cells, Mean (pAKT; G3, mature myeloid cells): 4.4 ± 3.1%
pAKT S/N ratio (pAKT; G3, mature myeloid cells): 2.8 ± 1.4
pAKT Percent (%) Responding Cells, Mean (pAKT; Mono, monocytes): 4.1 ± 4.9%
pAKT S/N ratio (pAKT; Mono, monocytes): 2.6 ± 1.2
pERK Percent (%) Responding Cells, Mean (pERK; CD34^+ (CD34^+/CD117^+ cells)): 47.1% and 47.1 ± 12.6%
pERK S/N ratio (pERK; CD34^+ (CD34^+/CD117^+ cells)): 10.2 and 10.2 ± 2.7
pERK Percent (%) Responding Cells, Mean (pERK; CD117^+ (CD34^−/CD117^+ cells)): 39.2 ± 13.9%
pERK S/N ratio (pERK; CD117^+ (CD34^−/CD117^+ cells)): 6.8 ± 2.5
pERK Percent (%) Responding Cells, Mean (pERK; G1, immature myeloid cells): 22.9% and 22.9 ± 24.1%
pERK S/N ratio (pERK; G1, immature myeloid cells): 4.2 ± 1.6
pERK Percent (%) Responding Cells, Mean (pERK; G2, intermediate myeloid cells): 55.2 ± 33.1%
pERK S/N ratio (pERK; G2, intermediate myeloid cells): 5.8 ± 2.4
pERK Percent (%) Responding Cells, Mean (pERK; G3, mature myeloid cells): 46.0% and 46.0 ± 30.3%
pERK S/N ratio (pERK; G3, mature myeloid cells): 6.2 ± 2.2
pERK Percent (%) Responding Cells, Mean (pERK; Mono, monocytes): 12.7 ± 8.8%
pERK S/N ratio (pERK; Mono, monocytes): 3.2 ± 1.6
pSTAT5 Percent (%) Responding Cells, Mean (pSTAT5 [2]; CD34^+ (CD34^+/CD117^+ cells)): 82.6 ± 14.0%
pSTAT5 S/N ratio (pSTAT5 [2]; CD34^+ (CD34^+/CD117^+ cells)): 25.2 and 25.2 ± 13.3
pSTAT5 Percent (%) Responding Cells, Mean (pSTAT5 [2]; CD117^+ (CD34^−/CD117^+ cells)): 49.8 ± 25.2%
pSTAT5 S/N ratio (pSTAT5 [2]; CD117^+ (CD34^−/CD117^+ cells)): 17.0 ± 11.9
pSTAT5 Percent (%) Responding Cells, Mean (pSTAT5 [2]; G1, immature myeloid cells): 70.9 ± 26.5%
pSTAT5 S/N ratio (pSTAT5 [2]; G1, immature myeloid cells): 8.7 and 8.7 ± 1.9
pSTAT5 Percent (%) Responding Cells, Mean (pSTAT5 [2]; G2, intermediate myeloid cells): 71.6 ± 22.0%
pSTAT5 S/N ratio (pSTAT5 [2]; G2, intermediate myeloid cells): 9.7 ± 2.3
pSTAT5 Percent (%) Responding Cells, Mean (pSTAT5 [2]; G3, mature myeloid cells): 71.4 ± 17.7%
pSTAT5 S/N ratio (pSTAT5 [2]; G3, mature myeloid cells): 11.7 and 11.7 ± 3.0
pSTAT5 Percent (%) Responding Cells, Mean (pSTAT5 [2]; Mono, monocytes): 29.5 ± 19.9%
pSTAT5 S/N ratio (pSTAT5 [2]; Mono, monocytes): 5.9 ± 2.0
pSTAT5, Normal Sample (pSTAT5 [2]; Table 7 comparison value, matches percent responding CD34^+ cells of Tables 1-5): 82.6
pSTAT3, AML Sample (pSTAT3 [3]): 7.0
pSTAT5, AML Sample (pSTAT5 [4]): 8.3
Modulation of phosphoprotein epitopes (pERK, pS6, pAKT, pSTAT3 or pSTAT5) in lymphocytes (lymphocytes): no response
